Reference: the Immune Epitope Database (IEDB)

Columns and labels:
Experiment in all cases: IEDB peptide-MHC binding, purified MHC/direct/fluorescence; filed as Kd, often an IC50 or EC50 that approximates it; ≥ and ≤ were set here for values at or beyond the usual limits of such assays
Conditions in all cases: source organism: Homo sapiens
HLA-A*02:01 = biological target: HLA-A*02:01
HLA-B*08:01 = biological target: HLA-B*08:01
HLA-C*01:02 = biological target: HLA-C*01:02
HLA-A*24:02 = biological target: HLA-A*24:02
HLA-B*13:02 = biological target: HLA-B*13:02
HLA-C*07:01 = biological target: HLA-C*07:01

LLMEKEDYHSL gave a Kd (HLA-A*02:01) of 100 nM.

DMKARQEAL showed a Kd (HLA-B*08:01) of 100 nM.

HLIDPNTLQV showed a Kd (HLA-A*02:01) of 10 nM.

With FLHEKQHEL the Kd (HLA-B*08:01) was 100 nM.

Work on FLPWHRLFL yielded a Kd (HLA-C*01:02) of 100 nM.

Sequence SYLEQASRI has a Kd (HLA-A*24:02) of 1000 nM.

YIHGGGWAL was tested, and the Kd (HLA-B*08:01) was 100 nM.

QLPDSVNQL showed a Kd (HLA-A*02:01) of 100 nM.

In the case of RSLEYLPLRF, the Kd (HLA-A*24:02) is reported as at least 10000 nM.

For ELPKYGVKV, the Kd (HLA-B*13:02) was at least 10000 nM.

Work on KRPTPTFHS yielded a Kd (HLA-C*07:01) of 1000 nM.
